Earlier results on one substance are cited in publication PMC3085179.

pKd: −log10 of the molar value.

This data set concerns the target intermediate affinity IL-2 receptor (Homo sapiens) (UniProt P14784).
Sequence of UniProt P14784 (P14784 27-240, chain 1 of 2): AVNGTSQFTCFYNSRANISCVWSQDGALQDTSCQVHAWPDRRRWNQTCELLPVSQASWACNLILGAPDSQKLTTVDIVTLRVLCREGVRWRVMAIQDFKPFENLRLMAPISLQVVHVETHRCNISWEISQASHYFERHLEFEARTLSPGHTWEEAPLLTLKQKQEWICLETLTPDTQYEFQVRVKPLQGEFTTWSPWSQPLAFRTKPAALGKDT
Sequence of UniProt P14784 (P31785 23-262, chain 2 of 2, further chain): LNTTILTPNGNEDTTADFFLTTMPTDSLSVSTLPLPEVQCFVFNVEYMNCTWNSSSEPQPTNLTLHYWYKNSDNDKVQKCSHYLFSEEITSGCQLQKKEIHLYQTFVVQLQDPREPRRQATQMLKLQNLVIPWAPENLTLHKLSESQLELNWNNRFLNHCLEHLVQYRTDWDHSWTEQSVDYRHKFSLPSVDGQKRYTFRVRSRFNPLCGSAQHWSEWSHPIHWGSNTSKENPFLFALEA

Sequence of IL-2 (P60568 21-153): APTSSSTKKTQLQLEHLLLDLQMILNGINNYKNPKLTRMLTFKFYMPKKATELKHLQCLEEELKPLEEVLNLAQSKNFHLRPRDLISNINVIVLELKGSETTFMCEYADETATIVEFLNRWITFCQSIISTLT

As for IL-2 (from UniProt P60568), the pKd (in general, the Kd on a negative log10 scale, so that one unit is a factor of ten) was 9.00.
